The record followed here is paper PMC5397419.

The data set has as its target T1, DnaA wild-type (Escherichia coli) (UniProt P03004).
T1 sequence: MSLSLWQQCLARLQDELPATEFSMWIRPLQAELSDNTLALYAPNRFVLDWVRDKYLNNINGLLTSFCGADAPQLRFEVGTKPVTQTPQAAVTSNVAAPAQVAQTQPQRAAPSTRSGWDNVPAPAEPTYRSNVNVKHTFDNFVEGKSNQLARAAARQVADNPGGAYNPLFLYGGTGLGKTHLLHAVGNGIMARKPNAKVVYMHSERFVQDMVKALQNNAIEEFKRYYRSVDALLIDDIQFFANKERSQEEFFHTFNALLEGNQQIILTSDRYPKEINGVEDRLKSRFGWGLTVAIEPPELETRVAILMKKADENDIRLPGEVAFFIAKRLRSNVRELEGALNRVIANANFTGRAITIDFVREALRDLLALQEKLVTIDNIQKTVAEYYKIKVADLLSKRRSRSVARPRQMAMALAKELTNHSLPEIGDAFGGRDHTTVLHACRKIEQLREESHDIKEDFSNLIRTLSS
Briefly: EMSA. Conditions: EMSA oriC/PdnaA: 20 mM HEPES-KOH pH 8.0, 5 mM Mg acetate, 1 mM EDTA, 4 mM DTT, 0.2% Triton X-100, 5% glycerol, 0.5 mg/ml BSA, 2 mM ATP, 20 C; DARS1: 20 mM …. Background: Mobility shift assays separate free from complexed probe on a gel.

Consider “GGGGATAGGGGCTGGAGACAGTTATCCACTATTCCTGTGGATAACCATGTGTATTAGAGTTAGAAAACACGAGGCAAGCGAGAGAATACGCGGCTTGCACG (double strand) [DARS1]”, for which the binding entry is given as “binds”.
